The target of this experiment is HumRadA22. In words: fluorescence polarisation; competition: displacement of a fluorescently-labelled BRC4 repeat from HumRadA22; KD calculated from IC50; single titrations with three technical replicates at each point; mock (linear) samples with 500 uM TCEP.

Take VNSSAFSGFCTASGKKLNVSCEALQKAVKLFSDIENIS (modifications not checked) [GB1-SP7-His8, mock-stapled (linear)]: the Kd is 39 nM.

Values taken from paper PMC10699557, “A recombinant approach for stapled peptide discovery yields inhibitors of the RAD51 recombinase” (Chemical Science, 2023).
